Assays:
[1] = target: T1, human CD4, membrane-bound on cells (HPB-ALL cells, blood/PBMC CD4+ T cells, assay target cells) (human, UniProt P01730 26-458); experiment: cell-based or functional assay
[2] = target: T1, human CD4, membrane-bound on cells …; experiment: cell-based or functional assay; remark: listed apart in the source
[3] = target: T2, recombinant soluble CD4 (UniProt P01730 26-390, limits assumed); experiment: competition ELISA on coated sCD4/p2704a mixture; inhibition of B4-biotin (10 µg/mL)
T2 construct: also called sCD4; rsCD4

[4] = target: T1, human CD4, membrane-bound on cells …; experiment: competition FACS on HPB-ALL cells; reference dB4
[5] = target: T1, human CD4, membrane-bound on cells …; experiment: competition FACS on HPB-ALL cells; inhibition of dB4-Alexa (250 ng/mL)
Experimental: On V-bottomed microplates, aliquots of 2×10⁵ cells in 0.1 mL per well were added, centrifuged, and liquid discarded. […] The cells were washed once and the liquid discarded after centrifugation. To each well, aliquots of 200 μL of binding buffer were added and transferred to microdilution tubes for flow cytometric analysis. The binding intensity (mean fluorescence intensity, MFI), based on an inlet of 5,000 cells per sample, was read on FACS.

[6] = target: T1, human CD4, membrane-bound on cells …; experiment: cell-based or functional assay; remark: listed apart in the source
[7] = target: T2, recombinant soluble CD4; experiment: competition ELISA on coated sCD4/p2704a mixture; reference dB4

B1: murine monoclonal antibody B4 (mAb B4) (antibody, V domains shown)
VH: QVQLQQSGPELVKPGASVRMSCKASGYTFTDYVIHWVKQRTGQGLEWIGEIYPGSGSAYSNAKFKDKATLTADKSSNTAYMQLSSLTSEDSAVYFCARRGNGTGFAYWGQGTLVTVSA
VL: DIVLTQSPASLAVSLGQRATISCKAGQSVDYDGDSYMNWYQQKPGQPPKLLIYVASNLESGIPARFSGSGSGTDFTLNIHPVEEEDAATYYCQQSYKDPLTFGAGTKLELK
modifications: N-glycosylated at Asn101 in the Fv
[1]
  IC50 entry inhibition, PhenoSense, control virus 92HT594: 0.021 µg/mL
  IC50 entry inhibition, PhenoSense, control virus JRCSF: 0.034 µg/mL
  IC50 entry inhibition, PhenoSense, control virus JRFL: 0.074 µg/mL
  IC50 entry inhibition, PhenoSense, isolate 92/RW/008 (clade A): 0.026 µg/mL
  IC50 entry inhibition, PhenoSense, isolate 92/RW/024 (clade A): 0.055 µg/mL
  IC50 entry inhibition, PhenoSense, isolate 92/TH/005 (clade EA): 0.012 µg/mL
  IC50 entry inhibition, PhenoSense, isolate 92/TH/006 (clade EA): 0.022 µg/mL
  IC50 entry inhibition, PhenoSense, isolate 92/TH/007 (clade EA): 0.013 µg/mL
  IC50 entry inhibition, PhenoSense, isolate 92/TH/009 (clade EA): 0.021 µg/mL
  IC50 entry inhibition, PhenoSense, isolate 92/TH/019 (clade EA): 0.022 µg/mL
  IC50 entry inhibition, PhenoSense, isolate 92/TH/020 (clade EA): 0.015 µg/mL
  IC50 entry inhibition, PhenoSense, isolate 92/TH/021 (clade EA): 0.017 µg/mL
  IC50 entry inhibition, PhenoSense, isolate 92/TH/022 (clade EA): 0.012 µg/mL
  IC50 entry inhibition, PhenoSense, isolate 92/TH/024 (clade EA): 0.01 µg/mL
  IC50 entry inhibition, PhenoSense, isolate 92/UG/001 (clade D): 0.018 µg/mL
  IC50 entry inhibition, PhenoSense, isolate 92/UG/005 (clade D): 0.019 µg/mL
  IC50 entry inhibition, PhenoSense, isolate 92/UG/021 (clade D): 0.017 µg/mL
  IC50 entry inhibition, PhenoSense, isolate 92/UG/024 (clade D): 0.04 µg/mL
  IC50 entry inhibition, PhenoSense, isolate 92/UG/035 (clade D): 0.011 µg/mL
  IC50 entry inhibition, PhenoSense, isolate 92/UG/038 (clade D): 0.014 µg/mL
  IC50 entry inhibition, PhenoSense, isolate 92/UG/046 (clade D): 0.015 µg/mL
  IC50 entry inhibition, PhenoSense, isolate 93/BR/019 (clade BF): 0.013 µg/mL
  IC50 entry inhibition, PhenoSense, isolate 93/BR/020 (clade F): 0.024 µg/mL
  IC50 entry inhibition, PhenoSense, isolate 93/IN/101 (clade C): 0.016 µg/mL
  IC50 entry inhibition, PhenoSense, isolate 93/RW/029 (clade A): 0.019 µg/mL
  IC50 entry inhibition, PhenoSense, isolate 93/TH/057 (clade E): 0.023 µg/mL
  IC50 entry inhibition, PhenoSense, isolate 93/TH/305 (clade E): 0.021 µg/mL
  IC50 entry inhibition, PhenoSense, isolate 93/UG/053 (clade D): 0.02 µg/mL
  IC50 entry inhibition, PhenoSense, isolate 93/UG/065 (clade D): 0.015 µg/mL
  IC50 entry inhibition, PhenoSense, isolate 93/UG/067 (clade D): 0.016 µg/mL
  IC50 entry inhibition, PhenoSense, isolate 93/UG/070 (clade D): 0.011 µg/mL
  IC50 entry inhibition, PhenoSense, isolate 93/UG/077 (clade A): 0.012 µg/mL
  IC50 entry inhibition, PhenoSense, isolate 93/UG/082 (clade D): 0.016 µg/mL
  IC50 entry inhibition, PhenoSense, isolate 93/UG/086 (clade D): 0.015 µg/mL
  IC50 entry inhibition, PhenoSense, isolate 94/UG/103 (clade A): 0.021 µg/mL
  IC50 entry inhibition, PhenoSense, isolate 94/UG/105 (clade D): 0.021 µg/mL
  IC50 entry inhibition, PhenoSense, isolate 94/UG/114 (clade D): 0.015 µg/mL
  IC50 entry inhibition, PhenoSense, isolate 94/UG/117 (clade D): 0.017 µg/mL
  IC50 entry inhibition, PhenoSense, isolate 94/UG/118 (clade D): 0.02 µg/mL
  IC50 entry inhibition, PhenoSense, isolate 10215-6 (clade C): 0.018 µg/mL
  IC50 entry inhibition, PhenoSense, isolate 10362 (clade C): 0.02 µg/mL
  IC50 entry inhibition, PhenoSense, isolate 11657-3 (clade C): 0.025 µg/mL
  IC50 entry inhibition, PhenoSense, isolate 20635-4 (clade C): 0.02 µg/mL
  IC50 entry inhibition, PhenoSense, isolate 21068 (clade C): 0.011 µg/mL
  IC50 entry inhibition, PhenoSense, isolate CA1 (clade A): 0.011 µg/mL
  IC50 entry inhibition, PhenoSense, isolate CA2 (clade A): 0.018 µg/mL
  IC50 entry inhibition, PhenoSense, isolate CA3 (clade A): 0.019 µg/mL
  IC50 entry inhibition, PhenoSense, isolate CC1 (clade C): 0.016 µg/mL
  IC50 entry inhibition, PhenoSense, isolate CC2 (clade C): 0.021 µg/mL
  IC50 entry inhibition, PhenoSense, isolate CC3 (clade C): 0.012 µg/mL
  IC50 entry inhibition, PhenoSense, isolate CC4 (clade C): 0.013 µg/mL
  IC50 entry inhibition, PhenoSense, isolate CC5 (clade C): 0.019 µg/mL
  IC50 entry inhibition, PhenoSense, isolate CC6 (clade C): 0.018 µg/mL
  IC50 entry inhibition, PhenoSense, isolate CC7 (clade C): 0.013 µg/mL
  IC50 entry inhibition, PhenoSense, isolate CC8 (clade C): 0.019 µg/mL
  IC50 entry inhibition, PhenoSense, isolate CC9 (clade C): 0.02 µg/mL
  IC50 entry inhibition, PhenoSense, isolate CC10 (clade C): 0.015 µg/mL
  IC50 entry inhibition, PhenoSense, isolate CD1 (clade D): 0.016 µg/mL
  IC50 entry inhibition, PhenoSense, isolate CF2 (clade F): 0.016 µg/mL
  IC50 entry inhibition, PhenoSense, isolate CF3 (clade F): 0.024 µg/mL
  IC50 entry inhibition, PhenoSense, isolate CF4 (clade F): 0.019 µg/mL
  IC50 entry inhibition, PhenoSense, isolate CF5 (clade F): 0.018 µg/mL
  IC50 entry inhibition, PhenoSense, isolate CF6 (clade F): 0.018 µg/mL
  IC50 entry inhibition, PhenoSense, isolate CF7 (clade F): 0.019 µg/mL
  IC50 entry inhibition, PhenoSense, isolate CF8 (clade F): 0.017 µg/mL
  IC50 entry inhibition, PhenoSense, isolate CG1 (clade G): 0.018 µg/mL
  IC50 entry inhibition, PhenoSense, isolate CG2 (clade G): 0.027 µg/mL
  IC50 entry inhibition, PhenoSense, isolate CG3 (clade G): 0.016 µg/mL
  IC50 entry inhibition, PhenoSense, isolate CG4 (clade G): 0.013 µg/mL
  IC50 entry inhibition, PhenoSense, isolate CJ1 (clade J): 0.018 µg/mL
  IC50 entry inhibition, PhenoSense, isolate CJ2 (clade J): 0.019 µg/mL
  IC50 entry inhibition, PhenoSense, isolate CMU02 (clade EA): 0.011 µg/mL
  IC50 entry inhibition, PhenoSense, isolate CMU06 (clade E): 0.026 µg/mL
  IC50 entry inhibition, PhenoSense, isolate MW/93/959 (clade C): 0.019 µg/mL
  IC50 entry inhibition, PhenoSense, isolate MW/93/960 (clade C): 0.01 µg/mL
  IC50 entry inhibition, PhenoSense, isolate QZ4589 (clade E?): 0.036 µg/mL
  average IC50 entry inhibition, PhenoSense, all viruses of Table 3: 0.018 µg/mL
[2]
  IC50 of HIV entry inhibition, pseudotype virus 92TH594 (R5/X4), U87-CD4+/CCR5+/CXCR4+ cells: 0.05 µg/mL
  IC50 of HIV entry inhibition, pseudotype virus HXB2 (X4), U87-CD4+/CCR5+/CXCR4+ cells: 0.4 µg/mL
  IC50 of HIV entry inhibition, pseudotype virus JRCSF (R5), U87-CD4+/CCR5+/CXCR4+ cells: 0.04 µg/mL
[3]
  IC50: 5.54 µg/mL
[4]
  IC50 ratio of B4 to dB4: 0.69 ratio
[5]
  IC50: 0.135 µg/mL
[6]
  IC50 of entry inhibition, second cluster, panel of over 850 Env pseudotype viruses: ~10 µg/mL
[7]
  IC50 ratio of B4 to dB4: 0.68 ratio
